Consider 21 molecules from US10421817 (BEIJING MABWORKS BIOTECH, dated 2019).

B1: 18F2-30-VH5VL0 (antibody, human IgG1, kappa, V domains shown)
VH: QVQLVQSGAEVKKPGASVKVSCKASGYTFTSFWLNWVRQRPGQGLEWIGNIYPSTSYTVYNQKFKDRVTLTVDKSTSTAYMELSSLRSEDTAVYYCTRTWRGNSFDYWGQGTTVTVSS
VL: DIVMTQSPDSLAVSLGERATINCKSSQSLLNSGNQKNYVTWYQQKPGQPPKLLIYWGSTRSTGVPDRFSGSGSGTDFTLTISSLQAEDVAVYYCQNDYTYPFTFGQGTKLEIKR
notes: Humanized, human IgG1/kappa constant regions
B2: 18F2-5VH6VL0 (antibody, human IgG1, kappa, V domains shown)
VH: QVQLVQSGAEVKKPGASVKVSCKASGYTFTSFWLNWVRQRPGQGLEWIGNIYPSTSYTVYNQKFKDRVTLTVDKSSSTAYMELSSLTSEDTAVYYCTRTWRGNSFDLWGQGTTVTVSS
VL: DIVMTQSPDSLAVSLGERATINCKSNQSLLNSGNQKNYVTWYQQKPGQPPKLLIYWGSTRVRGVPDRFSGSGSGTDFTLTISSLQAEDVAVYYCQNDYTYPFTFGQGTKLEIKR
notes: as for B1
B3: 18F2-35VH4VL0 (antibody, human IgG1, kappa, V domains shown)
VH: QVQLVQSGAEVKKPGASVKVSCKASGYTFTSFWLNWVRQRPGQGLEWIGNIYPSTSYTIYNQKFKDRVTLTVDKSTSTVYMELSSLRSEDTAVYYCARTWRGNSFDYWGQGTTVTVSS
VL: DIVMTQSPDSLAVSLGERATINCKSSQSLLNSGNQKNYLTWYQQKPGQPPKLLIYWGSTRVRGVPDRFSGSGSGTDFTLTISSLQAEDVAVYYCQNDYTYPFTFGQGTKLEIKR
notes: as for B1
B4: 18F2-35VH5VL0 (antibody, human IgG1, kappa, V domains shown)
VH: QVQLVQSGAEVKKPGASVKVSCKASGYTFTSFWLNWVRQRPGQGLEWIGNIYPSTSYTIYNQKFKDRVTLTVDKSTSTAYMELSSLRSEDTAVYYCTRTWRGNSFDYWGQGTTVTVSS
VL: DIVMTQSPDSLAVSLGERATINCKSSQSLLNSGNQKNYLTWYQQKPGQPPKLLIYWGSTRVRGVPDRFSGSGSGTDFTLTISSLQAEDVAVYYCQNDYTYPFTFGQGTKLEIKR
notes: as for B1
B5: 18F2-30-VH6VL0 (antibody, human IgG1, kappa, V domains shown)
VH: QVQLVQSGAEVKKPGASVKVSCKASGYTFTSFWLNWVRQRPGQGLEWIGNIYPSTSYTVYNQKFKDRVTLTVDKSSSTAYMELSSLTSEDTAVYYCTRTWRGNSFDYWGQGTTVTVSS
VL: DIVMTQSPDSLAVSLGERATINCKSSQSLLNSGNQKNYVTWYQQKPGQPPKLLIYWGSTRSTGVPDRFSGSGSGTDFTLTISSLQAEDVAVYYCQNDYTYPFTFGQGTKLEIKR
notes: as for B1
B6: 18F2-5VH5VL0 (antibody, human IgG1, kappa, V domains shown)
VH: QVQLVQSGAEVKKPGASVKVSCKASGYTFTSFWLNWVRQRPGQGLEWIGNIYPSTSYTVYNQKFKDRVTLTVDKSTSTAYMELSSLRSEDTAVYYCTRTWRGNSFDLWGQGTTVTVSS
VL: DIVMTQSPDSLAVSLGERATINCKSNQSLLNSGNQKNYVTWYQQKPGQPPKLLIYWGSTRVRGVPDRFSGSGSGTDFTLTISSLQAEDVAVYYCQNDYTYPFTFGQGTKLEIKR
notes: as for B1
B7: 18F2-35VH2VL0 (antibody, human IgG1, kappa, V domains shown)
VH: QVQLVQSGAEVKKPGASVKVSCKASGYTFTSFWLNWVRQAPGQGLEWIGNIYPSTSYTIYNQKFKDRVTLTVDKSTSTVYMELSSLRSEDTAVYYCARTWRGNSFDYWGQGTTVTVSS
VL: DIVMTQSPDSLAVSLGERATINCKSSQSLLNSGNQKNYLTWYQQKPGQPPKLLIYWGSTRVRGVPDRFSGSGSGTDFTLTISSLQAEDVAVYYCQNDYTYPFTFGQGTKLEIKR
notes: as for B1
B8: 18F2-30-VH3VL0 (antibody, human IgG1, kappa, V domains shown)
VH: QVQLVQSGAEVKKPGASVKVSCKASGYTFTSFWLNWVRQAPGQGLEWIGNIYPSTSYTVYNQKFKDRVTLTVDTSTSTVYMELSSLRSEDTAVYYCARTWRGNSFDYWGQGTTVTVSS
VL: DIVMTQSPDSLAVSLGERATINCKSSQSLLNSGNQKNYVTWYQQKPGQPPKLLIYWGSTRSTGVPDRFSGSGSGTDFTLTISSLQAEDVAVYYCQNDYTYPFTFGQGTKLEIKR
notes: as for B1
B9: 18F2-30-VH7VL0 (antibody, human IgG1, kappa, V domains shown)
VH: QVQLVQSGAEVKKPGASVKVSCKASGYTFTSFWLNWVKQRPGQGLEWIGNIYPSTSYTVYNQKFKDKVTLTVDKSTSTAYMELSSLRSEDTAVYYCTRTWRGNSFDYWGQGTTVTVSS
VL: DIVMTQSPDSLAVSLGERATINCKSSQSLLNSGNQKNYVTWYQQKPGQPPKLLIYWGSTRSTGVPDRFSGSGSGTDFTLTISSLQAEDVAVYYCQNDYTYPFTFGQGTKLEIKR
notes: as for B1
B10: 18F2-35VH6VL0 (antibody, human IgG1, kappa, V domains shown)
VH: QVQLVQSGAEVKKPGASVKVSCKASGYTFTSFWLNWVRQRPGQGLEWIGNIYPSTSYTIYNQKFKDRVTLTVDKSSSTAYMELSSLTSEDTAVYYCTRTWRGNSFDYWGQGTTVTVSS
VL: DIVMTQSPDSLAVSLGERATINCKSSQSLLNSGNQKNYLTWYQQKPGQPPKLLIYWGSTRVRGVPDRFSGSGSGTDFTLTISSLQAEDVAVYYCQNDYTYPFTFGQGTKLEIKR
notes: as for B1
B11: 18F2-5VH4VL0 (antibody, human IgG1, kappa, V domains shown)
VH: QVQLVQSGAEVKKPGASVKVSCKASGYTFTSFWLNWVRQRPGQGLEWIGNIYPSTSYTVYNQKFKDRVTLTVDKSTSTVYMELSSLRSEDTAVYYCARTWRGNSFDLWGQGTTVTVSS
VL: DIVMTQSPDSLAVSLGERATINCKSNQSLLNSGNQKNYVTWYQQKPGQPPKLLIYWGSTRVRGVPDRFSGSGSGTDFTLTISSLQAEDVAVYYCQNDYTYPFTFGQGTKLEIKR
notes: as for B1
B12: 18F2-30-VH6VL3 (antibody, human IgG1, kappa)
heavy: not shown
light: DIVMTQSPSSLTVSLGEKATISCKSSQSLLNSGNQKNYVTWYQQKPGQPPKLLIYWGSTRSTGVPDRFSGSGSGTDFTLTISSLQAEDLAVYYCQNDYTYPFTFGSGTKLEIKRTVAAPSVFIFPPSDEQLKSGTASVVCLLNNFYPREAKVQWKVDNALQSGNSQESVTEQDSKDSTYSLSSTLTLSKADYEKHKVYACEVTHQGLSSPVTKSFNRGEC
notes: as for B1
B13: 18F2-5VH3VL0 (antibody, human IgG1, kappa, V domains shown)
VH: QVQLVQSGAEVKKPGASVKVSCKASGYTFTSFWLNWVRQAPGQGLEWIGNIYPSTSYTVYNQKFKDRVTLTVDTSTSTVYMELSSLRSEDTAVYYCARTWRGNSFDLWGQGTTVTVSS
VL: DIVMTQSPDSLAVSLGERATINCKSNQSLLNSGNQKNYVTWYQQKPGQPPKLLIYWGSTRVRGVPDRFSGSGSGTDFTLTISSLQAEDVAVYYCQNDYTYPFTFGQGTKLEIKR
notes: as for B1
B14: 18F2-30-VH2VL0 (antibody, human IgG1, kappa, V domains shown)
VH: QVQLVQSGAEVKKPGASVKVSCKASGYTFTSFWLNWVRQAPGQGLEWIGNIYPSTSYTVYNQKFKDRVTLTVDKSTSTVYMELSSLRSEDTAVYYCARTWRGNSFDYWGQGTTVTVSS
VL: DIVMTQSPDSLAVSLGERATINCKSSQSLLNSGNQKNYVTWYQQKPGQPPKLLIYWGSTRSTGVPDRFSGSGSGTDFTLTISSLQAEDVAVYYCQNDYTYPFTFGQGTKLEIKR
notes: as for B1
B15: 18F2-5VH6VL2 (antibody, human IgG1, kappa)
heavy: not shown
light: DIVMTQSPSSLTVSLGEKATINCKSNQSLLNSGNQKNYVTWYQQKPGQPPKLLIYWGSTRVRGVPDRFSGSGSGTDFTLTISSLQAEDLAVYYCQNDYTYPFTFGQGTKLEIKRTVAAPSVFIFPPSDEQLKSGTASVVCLLNNFYPREAKVQWKVDNALQSGNSQESVTEQDSKDSTYSLSSTLTLSKADYEKHKVYACEVTHQGLSSPVTKSFNRGEC
notes: as for B1
B16: 18F2-5VH7VL2 (antibody, human IgG1, kappa)
heavy: not shown
light: DIVMTQSPSSLTVSLGEKATINCKSNQSLLNSGNQKNYVTWYQQKPGQPPKLLIYWGSTRVRGVPDRFSGSGSGTDFTLTISSLQAEDLAVYYCQNDYTYPFTFGQGTKLEIKRTVAAPSVFIFPPSDEQLKSGTASVVCLLNNFYPREAKVQWKVDNALQSGNSQESVTEQDSKDSTYSLSSTLTLSKADYEKHKVYACEVTHQGLSSPVTKSFNRGEC
notes: as for B1
B17: 18F2-5VH0VL0 (antibody, human IgG1, kappa, V domains shown)
VH: QVQLVQSGAEVKKPGASVKVSCKASGYTFTSFWLNWVRQAPGQGLEWMGNIYPSTSYTVYNQKFKDRVTMTRDTSTSTVYMELSSLRSEDTAVYYCARTWRGNSFDLWGQGTTVTVSS
VL: DIVMTQSPDSLAVSLGERATINCKSNQSLLNSGNQKNYVTWYQQKPGQPPKLLIYWGSTRVRGVPDRFSGSGSGTDFTLTISSLQAEDVAVYYCQNDYTYPFTFGQGTKLEIKR
notes: Humanized, human IgG1/kappa constant regions; also called 18F2-SVH0VL0
B18: 18F2-5VH6VL3 (antibody, human IgG1, kappa)
heavy: not shown
light: DIVMTQSPSSLTVSLGEKATISCKSNQSLLNSGNQKNYVTWYQQKPGQPPKLLIYWGSTRVRGVPDRFSGSGSGTDFTLTISSLQAEDLAVYYCQNDYTYPFTFGSGTKLEIKRTVAAPSVFIFPPSDEQLKSGTASVVCLLNNFYPREAKVQWKVDNALQSGNSQESVTEQDSKDSTYSLSSTLTLSKADYEKHKVYACEVTHQGLSSPVTKSFNRGEC
notes: as for B1
B19: 18F2-5VH7VL3 (antibody, human IgG1, kappa)
heavy: not shown
light: DIVMTQSPSSLTVSLGEKATISCKSNQSLLNSGNQKNYVTWYQQKPGQPPKLLIYWGSTRVRGVPDRFSGSGSGTDFTLTISSLQAEDLAVYYCQNDYTYPFTFGSGTKLEIKRTVAAPSVFIFPPSDEQLKSGTASVVCLLNNFYPREAKVQWKVDNALQSGNSQESVTEQDSKDSTYSLSSTLTLSKADYEKHKVYACEVTHQGLSSPVTKSFNRGEC
notes: as for B1
B20: 18F2-35VH3VL0 (antibody, human IgG1, kappa, V domains shown)
VH: QVQLVQSGAEVKKPGASVKVSCKASGYTFTSFWLNWVRQAPGQGLEWIGNIYPSTSYTIYNQKFKDRVTLTVDTSTSTVYMELSSLRSEDTAVYYCARTWRGNSFDYWGQGTTVTVSS
VL: DIVMTQSPDSLAVSLGERATINCKSSQSLLNSGNQKNYLTWYQQKPGQPPKLLIYWGSTRVRGVPDRFSGSGSGTDFTLTISSLQAEDVAVYYCQNDYTYPFTFGQGTKLEIKR
notes: as for B1
B21: 18F2-30-VH4VL0 (antibody, human IgG1, kappa, V domains shown)
VH: QVQLVQSGAEVKKPGASVKVSCKASGYTFTSFWLNWVRQRPGQGLEWIGNIYPSTSYTVYNQKFKDRVTLTVDKSTSTVYMELSSLRSEDTAVYYCARTWRGNSFDYWGQGTTVTVSS
VL: DIVMTQSPDSLAVSLGERATINCKSSQSLLNSGNQKNYVTWYQQKPGQPPKLLIYWGSTRSTGVPDRFSGSGSGTDFTLTISSLQAEDVAVYYCQNDYTYPFTFGQGTKLEIKR
notes: as for B1

T1 sequence (P56856 whole entry): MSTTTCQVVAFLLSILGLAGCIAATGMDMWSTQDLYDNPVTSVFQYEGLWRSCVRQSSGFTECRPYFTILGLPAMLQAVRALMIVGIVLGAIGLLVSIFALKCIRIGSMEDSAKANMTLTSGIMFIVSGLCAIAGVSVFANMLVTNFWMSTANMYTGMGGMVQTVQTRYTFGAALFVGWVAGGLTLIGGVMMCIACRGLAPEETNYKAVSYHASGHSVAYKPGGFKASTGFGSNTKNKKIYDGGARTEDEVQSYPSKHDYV

This assay has as its target T1, human Claudin 18.1 (human, UniProt P56856 1-261).
T1 construct: Overexpressed on HEK293A cells by lentivirus
Description: FACS on HEK293A/hClaudin 18.1 cells.
Take B1: the binding result is “no binding”.

In the case of B2, the binding result was “no binding”.

In the case of B3, the binding result is given as “no binding”.

In the case of B4, the binding result is reported as “no binding”.

In the case of B5, the binding result is “no binding”.

For B6, the binding result was “no binding”.

In the case of B7, the binding result was “no binding”.

On to B8, for which the binding result is recorded as “no binding”.

For B9, the binding result is listed as “no binding”.

For the molecule B10, the binding result is reported as “no binding”.

As for B11, the binding result is given as “no binding”.

As for B12, the binding result is reported as “no binding”.

As for B13, the binding result is listed as “no binding”.

Consider B14, for which the binding result was “no binding”.

On to B15, for which the binding result is “no binding”.

For the molecule B16, the binding result is “no binding”.

On to B17, for which the binding result is on record as “no binding”.

Regarding B18, the binding result is “no binding”.

B19: the binding result is listed as “no binding”.

With B20, the binding result is “no binding”.

For the molecule B21, the binding result was “no binding”.
